For experiment [1], the target named is T1, KO_276-285 (human; mouse, UniProt P70424 299-308).
T1 construct: domain: counterpart of human amino acids 276-285
As to the kind of experiment: SPR (ProteOn XPR36), variant captured by anti-Her2 polyclonal antibody, 39S injected; apparent affinity. As to the method: (§1) The chimeric variant nomenclature denotes types of variants (KO/KI) and the number of domains swapped. […] The expression of the variants was monitored by anti-His polyclonal antibody using ProteOn™.
(§2) Standard amine coupling was used to immobilize an anti-human or mouse Her2 polyclonal antibody (R&D System) in 10 mM sodium acetate (pH 5.0) to the surface of a GLC biosensor chip at ˜5000 resonance units (RU) for each channel. The chimeric proteins in cell culture supernatant were injected and captured by anti-human or mouse polyclonal antibodies onto the GLC surface with a ˜200 RU response. […] The surface was regenerated twice by injecting glycine buffer (10 mM, pH 1.5) at 100 μL/min for 30 sec. All sensorgram data were processed with the ProteOn™ Manager 3.0.1 software.

Experiment [2] deals with KO_171-187 (human; mouse, UniProt P70424 194-210). The description is as above. As for the experimental part:
as §1, §2

Experiment [3] has as its target T2, KO_250-261 (human; mouse, UniProt P70424 273-284).
T2 construct: domain: counterpart of human amino acids 250-261
Described as above. As for the experimental part:
as §1, §2

Experiment [4] has as its target T3, KO_295-296 (human; mouse, UniProt P70424 318-319).
T3 construct: domain: counterpart of human amino acids 295-296
The experiment is described as above. As for the experimental part: as §1, §2

Experiment [5] has as its target T4, KO_159-162 (human; mouse, UniProt P70424 182-185).
T4 construct: domain: counterpart of human amino acids 159-162
The experiment is described as above. As to the method:
as §1, §2

Experiment [6] concerns the target T5, human HER3 recombinant extracellular domain protein (human, UniProt P21860 20-643).
T5 construct: extracellular domain
As to the kind of experiment: capture ELISA on coated recombinant extracellular domain protein. As to the method:
(§3) Antibody to be tested was prepared by diluting in a stepwise 1:3 serial dilution ranging from 50 nM down to 0.28 pM and then added to the wells in duplicate. After one hour of incubation, plates were washed, and goat anti-human IgG Fab HRP-conjugated secondary antibody was added to each well and the plates were incubated for 1 hour. The plates were washed and TMB substrate was added and incubated for 5-20 min to allow color development. The stop solution was added to the wells at the end of reaction and the plates were read at 450 nm. Binding signal (absorbance at 450 nm) was plotted against antibody concentration using Prism software.
(In an ELISA, binding on a coated surface is turned into a signal by an enzyme label.)

Experiment [7] concerns the target T6, human HER4 recombinant extracellular domain protein (human, UniProt Q15303 26-651).
T6 construct: extracellular domain
T6 sequence (looked up): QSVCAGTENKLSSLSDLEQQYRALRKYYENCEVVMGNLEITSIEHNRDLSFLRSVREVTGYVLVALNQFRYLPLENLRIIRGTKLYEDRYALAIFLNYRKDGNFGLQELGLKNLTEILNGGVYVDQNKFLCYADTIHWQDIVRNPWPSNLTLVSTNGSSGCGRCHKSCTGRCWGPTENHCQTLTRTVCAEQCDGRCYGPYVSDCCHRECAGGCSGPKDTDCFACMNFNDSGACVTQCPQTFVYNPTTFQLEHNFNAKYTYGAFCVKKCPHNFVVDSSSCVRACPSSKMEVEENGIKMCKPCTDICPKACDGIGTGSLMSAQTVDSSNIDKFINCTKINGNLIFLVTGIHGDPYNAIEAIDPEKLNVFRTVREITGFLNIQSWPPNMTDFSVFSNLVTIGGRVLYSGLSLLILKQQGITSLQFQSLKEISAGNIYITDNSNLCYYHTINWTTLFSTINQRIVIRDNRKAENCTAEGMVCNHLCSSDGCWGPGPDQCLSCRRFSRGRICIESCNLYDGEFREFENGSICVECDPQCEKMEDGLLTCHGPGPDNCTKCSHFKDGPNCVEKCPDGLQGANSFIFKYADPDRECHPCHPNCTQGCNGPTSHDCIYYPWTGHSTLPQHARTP
Described as above. As for the experimental part:
as §3

For experiment [8], the target named is T7, human EGFR recombinant extracellular domain protein (human, UniProt P00533 25-645).
T7 construct: extracellular domain
The experiment is described as above. As for the experimental part: as §3

Experiment [9] concerns the target T8, recombinant human HER2 extracellular domain protein (human, UniProt P04626 23-652). As to the kind of experiment: BIAcore KD of 39S against the reported KD of 1.39.1.
Experiment [10] addresses Human Her2 (control of Table 4) (human, UniProt P04626 23-652). As to the kind of experiment: SPR (ProteOn XPR36), human Her2 captured by anti-Her2 polyclonal antibody, 39S injected; apparent affinity. As for the experimental part: as §1, §2
The target in experiment [11] is T9, KO_146-208 (human; mouse, UniProt P70424 169-231).
T9 construct: domain: counterpart of human amino acids 146-208
As to the kind of experiment: SPR (ProteOn XPR36), variant captured by anti-Her2 polyclonal antibody, 39S injected. As to the method:
as §1, §2

Experiment [12] addresses T10, KO_192-208 (human; mouse, UniProt P70424 215-231).
T10 construct: domain: counterpart of human amino acids 192-208
The experiment is described as above. As to the method:
as §1, §2

Experiment [13] concerns the target T11, human HER2 on cells (human, UniProt P04626 23-1255).
T11 construct: whole, on cells; also called HER2 on BT-474 cells; HER2 on T47D cells
As to the kind of experiment: FACS competition on BT-474 cells; competitor: fluorescently labelled 39S at 2 µg/mL; unlabelled antibody titrated. As to the method: BT-474 cells were harvested, resuspended in FACS buffer, and 2.5×10⁵ cells/well were added to a 96-well U-bottom plate. […] After 1 hour of staining on ice, cells were washed 3 times with ice-cold FACS buffer and then fixed with 2% PFA. Cells were analyzed by a BD LSR II machine with BD FACSDiva™ software. Data were analyzed with FlowJo software and presented as mean MFI±SEM (n=3).

The target in experiment [14] is T8, recombinant human HER2 extracellular …. As to the kind of experiment: BIAcore (SPR), format not stated. (In SPR one partner is held on a chip, and binding of the other changes the refractive index at the surface.)
Experiment [15] deals with T12, mouse Her2 recombinant extracellular domain protein (mouse, UniProt P70424 23-653).
T12 construct: extracellular domain
As to the kind of experiment: capture ELISA on coated recombinant extracellular domain protein. As for the experimental part: as §3

Results on two molecules are retold here after patent publication US20170291955A1 (AstraZeneca / MedImmune, published 2017).

B1: 39S antibody (antibody, V domains shown)
VH: EVQLVESGGGLVKPGGSLRLSCAASGFTFSSYSMSWVRQAPGKGLEWVSSISSSSSYIYYADSVKGRFTISRDNAKNSLYLQMNSLRAEDTAVYYCARGGDAYNYYYFDYWGQGTLVTVSS
VL: DIVMTQTPLSLSVTPGQPASISCKSSQSVFFRSNNKNILAWYLQKPGQPPQLLIYWASSRESGVPDRFSGSGSGTDFTLKISRVEAEDVGVYYCQQYFGSPFTFGPGTKVDIK
notes: also called lead optimized 39S antibody (LO); anti-HER2 mAb 39S
In the case of B1, the Kd in [1] was 106 pM; in experiment [2] it was 38 pM; in [3] it was 187 pM; in experiment [4], 84.7 pM; in [5] it was 101 pM; in experiment [10], 84 pM. In experiment [14], the Kd is about 1000 pM. Besides, the binding result in [6] was “no binding (tested: 50 nM (highest concentration tested))”; in experiment [7] it was “no binding (tested: 50 nM (highest concentration tested))”; in [8], “no binding (tested: 50 nM (highest concentration tested))”; in experiment [11], “no binding”; in [12], “no binding”. In experiment [9], the “fold increase in binding affinity over the parental antibody (1.39.1)” value was 2 fold. Moreover, the “IC50 (read off the curve)” value in experiment [13] is about 3 µg/mL.

B2: AZ1.39.1 (antibody, V domains shown)
VH: EVQLVESGGGLVKPGGSLRLSCAASGFTFSSYSMNWVRQAPGKGLEWVSSISSSSSYIYYADSVKGRFTISRDNAKNSLYLQMNSLRAEDTAVYYCARGGDGYNYYYFDYWGQGTLVTVSS
VL: DIVMTQSPDSLAVSLGERATITCKSSQSVFFRSNNKNCLAWYQQRPGQPPNLLIYWASSRESGVPDRFSGSGSGTDFALTISSLQTEDVAVYYCQQYFGSPFTFGPGTKVDIK
B2: the binding result in experiment [15], in [6], in [7] and in experiment [8] was “no binding” throughout. Further, in [13], the “IC50 (read off the curve)” value was about 5 µg/mL.
